Data taken from patent US20220096649A1.
Numbering of substitutions follows the chain as printed.

B1: Anti-SIRP-α antibody 136, light chain Mut_Q38E, heavy chain Mut (antibody, V domains shown)
VH: EVQLVESGGGVVQPGRSLRLSCAASGFTFSSYDVNWVRQAPGKGLEWVSLISGSGEIIYYADSVKGRFTISRDNSKNTLYLQMNSLRAEDTAVYYCAKENNRYRFFDDWGQGTLVTVSS
VL: EIVLTQSPGTLSLSPGERATLSCRASQSVYTYLAWYQEKPGQAPRLLIYGASSRATGIPDRFSGSGSGTEFTLTISSLQSEDFAVYYCQQYYDRPPLTFGGGTKVEIK
B2: Anti-SIRP-α antibody 136, light chain Mut_S22T, heavy chain Mut (antibody, V domains shown)
VH: B1 VH
VL: B1 VL with S22T, E38Q
B3: Anti-SIRP-α antibody 136, light chain Mut_S12T, heavy chain Mut (antibody, V domains shown)
VH: B1 VH
VL: B1 VL with S12T, E38Q
B4: Anti-SIRP-α antibody 136, light chain Mut_I2T, heavy chain Mut_V34M (antibody, V domains shown)
VH: B1 VH with V34M
VL: B1 VL with I2T, E38Q
B5: Anti-SIRP-α antibody 136, light chain Mut_I2T, heavy chain Mut (antibody, V domains shown)
VH: B1 VH
VL: B1 VL with I2T, E38Q
B6: Anti-SIRP-α antibody 136, light chain Mut, heavy chain Mut (antibody, V domains shown)
VH: B1 VH
VL: B1 VL with E38Q
B7: Anti-SIRP-α antibody 136, light chain wt, heavy chain Mut (antibody, V domains shown)
VH: B1 VH
VL: B1 VL with I2T, S12T, S22T
B8: Anti-SIRP-α antibody 119, light chain wt, heavy chain wt (antibody, V domains shown)
VH: EVQLLESGGGVVQPGGSLRLSCAASGFSFSNFAMTWVRQAPGEGLEWVSTIGSGDTYYADSVKGRFTISRDNSKNTLYLQMNSLRAEDTAVYYCAKDSTVSWSGDFFDYWGLGTLVTVSS
VL: EIVLTQSPATLSVSPGERATFSCRASQNVKNDLAWYQQRPGQAPRLLIYAARIRETGIPERFSGSGSGTEFTLTITSLQSEDFAVYYCQQYYDWPPFTFGGGTKVEIK
B9: Anti-SIRP-α antibody 135, light chain wt, heavy chain Mut_V34M (antibody, V domains shown)
VH: B8 VH with L5V, N31I, F32Y, T35S, E43K, S53A, G54D, S101G, L112Q
VL: EIVLTQSPATLSVSPGERVTFSCRASQNVRSDIAWYQQKPGQAPRLLIYAASSRDTGIPDRFSGSGSGTDFTLTISSLQSEDFGVYYCQQYYDWPPFTFGGGTKVEIK
B10: Anti-SIRP-α antibody 119, light chain Mut, heavy chain wt (antibody, V domains shown)
VH: B8 VH
VL: B8 VL with F21L, R39K, E60A, T76S
B11: Anti-SIRP-α antibody 119, light chain Mut, heavy chain Mut_V34M (antibody, V domains shown)
VH: B8 VH with E43K, L112Q
VL: B8 VL with F21L, R39K, E60A, T76S
B12: Anti-SIRP-α antibody 119, light chain wt, heavy chain Mut (antibody, V domains shown)
VH: B8 VH with M34V, E43K, L112Q
VL: B8 VL
B13: Anti-SIRP-α antibody 135, light chain wt, heavy chain wt (antibody, V domains shown)
VH: B8 VH with E1D, L5V, Q13R, G16E, N31I, F32Y, T35S, S53A, G54D, S101G
VL: B9 VL
B14: Anti-SIRP-α antibody 119, light chain Mut, heavy chain Mut (antibody, V domains shown)
VH: B8 VH with M34V, E43K, L112Q
VL: B8 VL with F21L, R39K, E60A, T76S
B15: Anti-SIRP-α antibody 135, light chain wt, heavy chain Mut (antibody, V domains shown)
VH: B8 VH with L5V, N31I, F32Y, M34V, T35S, E43K, S53A, G54D, S101G, L112Q
VL: B9 VL
B16: Anti-SIRP-α antibody 135, light chain Mut, heavy chain wt (antibody, V domains shown)
VH: B8 VH with E1D, L5V, Q13R, G16E, N31I, F32Y, T35S, S53A, G54D, S101G
VL: B9 VL with F21L, D60A
B17: Anti-SIRP-α antibody 135, light chain Mut, heavy chain Mut (antibody, V domains shown)
VH: B8 VH with L5V, N31I, F32Y, M34V, T35S, E43K, S53A, G54D, S101G, L112Q
VL: B9 VL with F21L, D60A
B18: Hum1/AB21_HC_Mutall (antibody, V domains shown)
VH: EVQLVESGGGVVQPGGSLRLSCAASGFTFSSNAMSWVRQAPGKGLEWVAGISAGGSDTYYPASVKGRFTISRDNSKNTLYLQMNSLRAEDTAVYYCARETWNHLFDYWGQGTLVTVSS
VL: SYELTQPPSVSVSPGQTARITCSGGSYSSYYYAWYQQKPGQAPVTLIYSDDKRPSNIPERFSGSSSGTTVTLTISGVQAEDEADYYCGGYDQSSYTNPFGGGTKLTVL
B19: Hum8/AB21_HC_Mutall (antibody, V domains shown)
VH: B18 VH
VL: B18 VL with S26A, T45L, L46V, D51S, N56G
B20: Hum9/AB21_HC_Mutall (antibody, V domains shown)
VH: B18 VH
VL: B18 VL with S26A, T45L, L46V, N56G

Columns and labels:
[1] = biological target: SIRP-α mouse NOD (mouse (NOD)) (UniProt P97797); experiment: SPR, antibody on GLC chip, SIRP as analyte
[2] = biological target: SIRP-α human v1 (human) (UniProt P78324); experiment: SPR, antibody on GLC chip, SIRP as analyte
Chain of SIRP-α human v1 (human) (P78324 31-149): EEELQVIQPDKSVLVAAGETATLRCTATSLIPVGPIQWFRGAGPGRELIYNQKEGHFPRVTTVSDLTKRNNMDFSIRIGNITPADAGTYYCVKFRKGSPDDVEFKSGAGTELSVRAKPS

[3] = biological target: SIRP-α mouse BALBc (mouse (BALBc)) (UniProt P97797); experiment: SPR, antibody on GLC chip, SIRP as analyte
[4] = biological target: SIRP-α mouse BALBc (mouse (BALBc)) (UniProt P97797); experiment: SPR, antibody on GLC chip, SIRP as analyte; Mouse BALBc SIRP-α allele
[5] = biological target: SIRP-α mouse NOD (mouse (NOD)) (UniProt P97797); experiment: SPR, antibody on GLC chip, SIRP as analyte; Mouse NOD SIRP-α allele

| Binder | Kd [1] | Kd [2] | Kd [3] | Kd [4] | Kd [5] |
| --- | --- | --- | --- | --- | --- |
| B1 | 6 nM | 6.2 nM | 3 nM |  |  |
| B2 | 2.4 nM | 5 nM | 1.6 nM |  |  |
| B3 | 2.9 nM | 4.9 nM | 2.1 nM |  |  |
| B4 | 0.6 nM | 0.55 nM | 0.36 nM |  |  |
| B5 | 0.68 nM | 0.72 nM | 0.42 nM |  |  |
| B6 | 5.2 nM | 7.3 nM | 3.1 nM |  |  |
| B7 | 0.68 nM | 0.56 nM | 0.42 nM |  |  |
| B8 |  | 0.18 nM |  |  |  |
| B9 |  | 0.15 nM |  |  |  |
| B10 |  | 0.21 nM |  |  |  |
| B11 |  | 0.22 nM |  |  |  |
| B12 |  | 0.25 nM |  |  |  |
| B13 |  | 0.15 nM |  |  |  |
| B14 |  | 0.32 nM |  |  |  |
| B15 |  | 0.18 nM |  |  |  |
| B16 |  | 0.15 nM |  |  |  |
| B17 |  | 0.19 nM |  |  |  |
| B18 | 3.7 nM | 0.0053 nM | 7.9 nM |  |  |
| B19 |  | 0.02 nM |  | 71 nM | 28 nM |
| B20 |  | 0.012 nM |  | 140 nM | 24 nM |
